Publication PMC9482650, “Quantitative fragmentomics allow affinity mapping of interactomes” (Nature Communications, 2022)
One block for each binder: values may come before it.

Tests used:
Test in all cases: holdup assay
Parameters in all cases: key: below the threshold = too weak to quantify, mostly under pKd 3.1 to 4
NHERF3_4, Q5T2W1 = target: T1, NHERF3_4, Q5T2W1
T1 sequence (Q5T2W1 373-468, limits assumed, looked up): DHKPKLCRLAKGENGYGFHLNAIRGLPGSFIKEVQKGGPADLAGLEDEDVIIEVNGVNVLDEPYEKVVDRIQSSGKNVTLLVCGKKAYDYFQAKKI

DLG4_2, P78352 = target: DLG4_2, P78352
TJP1_2, Q07157 = target: TJP1_2, Q07157
DLG3_2, Q92796 = target: T2, DLG3_2, Q92796
T2 sequence (Q92796 221-321, limits assumed, looked up): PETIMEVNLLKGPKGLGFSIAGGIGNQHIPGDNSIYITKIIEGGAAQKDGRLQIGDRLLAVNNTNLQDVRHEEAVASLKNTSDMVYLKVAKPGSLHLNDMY

RHPN1, Q8TCX5 = target: T3, RHPN1, Q8TCX5
T3 sequence (Q8TCX5 508-602, limits assumed, looked up): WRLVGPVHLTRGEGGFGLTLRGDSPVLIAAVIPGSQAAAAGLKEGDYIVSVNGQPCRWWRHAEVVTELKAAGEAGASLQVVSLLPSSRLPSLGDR

MPP2, Q14168 = target: T4, MPP2, Q14168
T4 sequence (Q14168 180-250, limits assumed, looked up): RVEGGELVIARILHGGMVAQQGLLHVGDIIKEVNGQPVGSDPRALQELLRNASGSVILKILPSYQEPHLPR

SHANK1, Q9Y566 = target: T5, SHANK1, Q9Y566
T5 sequence (Q9Y566 658-767, limits assumed, looked up): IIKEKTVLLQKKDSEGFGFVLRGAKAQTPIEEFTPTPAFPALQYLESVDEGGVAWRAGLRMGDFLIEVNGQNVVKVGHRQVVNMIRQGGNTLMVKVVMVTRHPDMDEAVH

MAGI1_2, Q96QZ7 = target: MAGI1_2, Q96QZ7
FRMPD3, Q5JV73 = target: FRMPD3, Q5JV73
GORASP2, Q9H8Y8 = target: GORASP2, Q9H8Y8
SCRIB_1, Q14160 = target: SCRIB_1, Q14160
MAGI2_3, Q86UL8 = target: MAGI2_3, Q86UL8
PTPN3, P26045 = target: PTPN3, P26045
SYNJ2BP, P57105 = target: T6, SYNJ2BP, P57105
T6 sequence (P57105 8-110, limits assumed, looked up): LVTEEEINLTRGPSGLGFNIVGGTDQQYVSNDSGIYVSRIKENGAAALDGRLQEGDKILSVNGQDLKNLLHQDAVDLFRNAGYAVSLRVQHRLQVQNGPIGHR

LIN7C, Q9NUP9 = target: T7, LIN7C, Q9NUP9
T7 sequence (Q9NUP9 88-185, limits assumed, looked up): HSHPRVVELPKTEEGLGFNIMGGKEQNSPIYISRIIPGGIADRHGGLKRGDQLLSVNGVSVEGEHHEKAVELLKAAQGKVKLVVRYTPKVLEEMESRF

LNX2_2, Q8N448 = target: T8, LNX2_2, Q8N448
T8 sequence (Q8N448 334-432, limits assumed, looked up): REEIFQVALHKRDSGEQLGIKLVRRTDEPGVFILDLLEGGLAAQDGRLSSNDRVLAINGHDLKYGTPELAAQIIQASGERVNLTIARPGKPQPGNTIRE

NHERF4_2, Q86UT5 = target: NHERF4_2, Q86UT5
GORASP1, Q9BQQ3 = target: GORASP1, Q9BQQ3
LNX1_1, Q8TBB1 = target: LNX1_1, Q8TBB1
SNTG1, Q9NSN8 = target: T9, SNTG1, Q9NSN8
T9 sequence (Q9NSN8 52-150, limits assumed, looked up): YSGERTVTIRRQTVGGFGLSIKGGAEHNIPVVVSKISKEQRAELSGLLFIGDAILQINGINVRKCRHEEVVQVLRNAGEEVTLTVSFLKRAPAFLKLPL

NHERF2_2, Q15599 = target: NHERF2_2, Q15599
DLG4_1, P78352 = target: DLG4_1, P78352
PDZRN4_1, Q6ZMN7 = target: PDZRN4_1, Q6ZMN7
DFNB31_3, Q9P202 = target: T10, DFNB31_3, Q9P202
T10 sequence (Q9P202 811-907, limits assumed, looked up): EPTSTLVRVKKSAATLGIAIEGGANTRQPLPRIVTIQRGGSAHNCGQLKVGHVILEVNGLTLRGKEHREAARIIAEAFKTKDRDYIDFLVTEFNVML

MAST1, Q9Y2H9 = target: MAST1, Q9Y2H9
NHERF3_1, Q5T2W1 = target: T11, NHERF3_1, Q5T2W1
T11 sequence (Q5T2W1 4-100, limits assumed, looked up): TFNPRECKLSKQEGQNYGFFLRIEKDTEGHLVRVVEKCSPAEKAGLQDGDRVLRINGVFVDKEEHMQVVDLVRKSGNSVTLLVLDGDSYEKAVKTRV

Inadl_8, Q8NI35 = target: Inadl_8, Q8NI35
[1] = plain residues with an end cap or a label only (N-terminal biotin on a linker: ahx)
[2] = plain residues with an end cap or a label only (N-terminal biotin on a linker: ttds)

NHERF4_2, Q86UT5, sequence (Q86UT5 220-308): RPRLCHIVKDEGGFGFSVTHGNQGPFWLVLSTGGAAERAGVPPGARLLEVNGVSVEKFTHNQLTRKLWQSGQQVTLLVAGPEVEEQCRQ
Inadl_8, Q8NI35, sequence (Q8NI35 1425-1530): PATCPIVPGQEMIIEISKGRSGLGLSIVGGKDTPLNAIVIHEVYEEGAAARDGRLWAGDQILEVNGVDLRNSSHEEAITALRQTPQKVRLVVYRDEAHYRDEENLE
FRMPD3, Q5JV73, sequence (Q5JV73 12-100): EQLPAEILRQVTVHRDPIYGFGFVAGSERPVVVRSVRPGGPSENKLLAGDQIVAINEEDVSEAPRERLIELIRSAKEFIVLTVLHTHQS
DLG4_2, P78352, sequence (P78352 155-259): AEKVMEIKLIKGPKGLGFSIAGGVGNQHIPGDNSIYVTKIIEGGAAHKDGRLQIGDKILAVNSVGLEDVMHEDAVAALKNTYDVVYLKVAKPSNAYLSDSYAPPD
SCRIB_1, Q14160, sequence (Q14160 718-814): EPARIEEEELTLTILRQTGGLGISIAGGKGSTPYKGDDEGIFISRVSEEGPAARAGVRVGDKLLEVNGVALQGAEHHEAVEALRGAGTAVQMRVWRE
MAGI2_3, Q86UL8, sequence (Q86UL8 600-682): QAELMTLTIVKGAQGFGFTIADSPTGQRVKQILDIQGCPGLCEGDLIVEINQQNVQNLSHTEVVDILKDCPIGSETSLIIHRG
MAST1, Q9Y2H9, sequence (Q9Y2H9 962-1065): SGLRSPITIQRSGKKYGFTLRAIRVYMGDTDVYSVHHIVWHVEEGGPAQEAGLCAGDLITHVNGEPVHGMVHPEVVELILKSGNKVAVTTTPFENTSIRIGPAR
GORASP1, Q9BQQ3, sequence (Q9BQQ3 1-208): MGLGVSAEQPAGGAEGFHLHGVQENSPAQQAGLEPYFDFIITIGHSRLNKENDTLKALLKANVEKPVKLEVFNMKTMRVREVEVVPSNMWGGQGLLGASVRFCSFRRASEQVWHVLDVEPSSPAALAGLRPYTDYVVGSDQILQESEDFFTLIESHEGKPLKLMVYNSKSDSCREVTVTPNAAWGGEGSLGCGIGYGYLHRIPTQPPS
PDZRN4_1, Q6ZMN7, sequence (Q6ZMN7 213-318): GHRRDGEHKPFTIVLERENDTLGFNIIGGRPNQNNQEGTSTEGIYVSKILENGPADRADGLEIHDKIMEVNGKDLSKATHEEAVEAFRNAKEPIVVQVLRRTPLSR
MAGI1_2, Q96QZ7, sequence (Q96QZ7 456-580): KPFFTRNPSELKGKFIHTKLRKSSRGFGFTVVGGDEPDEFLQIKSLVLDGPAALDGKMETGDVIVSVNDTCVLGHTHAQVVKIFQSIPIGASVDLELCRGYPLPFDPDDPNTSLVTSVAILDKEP
PTPN3, P26045, sequence (P26045 505-587): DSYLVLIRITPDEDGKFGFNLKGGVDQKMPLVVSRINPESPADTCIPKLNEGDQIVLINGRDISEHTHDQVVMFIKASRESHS
TJP1_2, Q07157, sequence (Q07157 181-274): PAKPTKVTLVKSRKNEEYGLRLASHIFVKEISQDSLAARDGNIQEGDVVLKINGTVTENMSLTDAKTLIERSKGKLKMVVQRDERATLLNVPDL
DLG4_1, P78352, sequence (P78352 62-152): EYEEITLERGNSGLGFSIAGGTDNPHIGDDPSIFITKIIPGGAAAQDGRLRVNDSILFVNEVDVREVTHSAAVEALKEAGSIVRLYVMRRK
NHERF2_2, Q15599, sequence (Q15599 142-238): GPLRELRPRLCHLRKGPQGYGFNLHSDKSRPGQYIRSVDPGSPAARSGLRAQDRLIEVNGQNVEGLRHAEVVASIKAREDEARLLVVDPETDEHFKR
LNX1_1, Q8TBB1, sequence (Q8TBB1 261-371): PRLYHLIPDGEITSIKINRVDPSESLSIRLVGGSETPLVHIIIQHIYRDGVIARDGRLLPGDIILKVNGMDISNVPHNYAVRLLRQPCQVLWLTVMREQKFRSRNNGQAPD

pKd (NHERF3_4, Q5T2W1; [1]): below the threshold
pKd (DLG4_2, P78352; [1]): 4.36
pKd (TJP1_2, Q07157; [1]): below the threshold
pKd (DLG3_2, Q92796; [1]): 4.07
pKd (RHPN1, Q8TCX5; [1]): 3.85
pKd (MPP2, Q14168; [1]): 3.62
pKd (SHANK1, Q9Y566; [1]): 3.48
pKd (MAGI1_2, Q96QZ7; [1]): 3.85
pKd (FRMPD3, Q5JV73; [1]): below the threshold
pKd (GORASP2, Q9H8Y8; [1]): 4.55
pKd (SCRIB_1, Q14160; [1]): below the threshold
pKd (MAGI2_3, Q86UL8; [1]): 3.66
pKd (PTPN3, P26045; [1]): 4.23
pKd (SYNJ2BP, P57105; [1]): 5.53
pKd (LIN7C, Q9NUP9; [1]): 4.98
pKd (LNX2_2, Q8N448; [1]): 4.32
pKd (NHERF4_2, Q86UT5; [1]): below the threshold
pKd (GORASP1, Q9BQQ3; [1]): 3.58
pKd (LNX1_1, Q8TBB1; [1]): 4.79
pKd (SNTG1, Q9NSN8; [1]): 3.7
pKd (NHERF2_2, Q15599; [1]): below the threshold
pKd (DLG4_1, P78352; [1]): 4.44
pKd (PDZRN4_1, Q6ZMN7; [1]): 4.23
pKd (DFNB31_3, Q9P202; [1]): below the threshold
pKd (MAST1, Q9Y2H9; [1]): 3.88
pKd (NHERF3_1, Q5T2W1; [1]): 4.73
pKd (Inadl_8, Q8NI35; [1]): 4.57
Binder: TVICWPGSLV [LNX2, Q8N448]

pKd (NHERF3_4, Q5T2W1; [2]): below the threshold
pKd (DLG4_2, P78352; [2]): 3.33
pKd (TJP1_2, Q07157; [2]): below the threshold
pKd (DLG3_2, Q92796; [2]): below the threshold
pKd (RHPN1, Q8TCX5; [2]): 3.97
pKd (MPP2, Q14168; [2]): below the threshold
pKd (SHANK1, Q9Y566; [2]): below the threshold
pKd (MAGI1_2, Q96QZ7; [2]): below the threshold
pKd (FRMPD3, Q5JV73; [2]): below the threshold
pKd (GORASP2, Q9H8Y8; [2]): 3.87
pKd (SCRIB_1, Q14160; [2]): 3.83
pKd (MAGI2_3, Q86UL8; [2]): below the threshold
pKd (PTPN3, P26045; [2]): 4.87
pKd (SYNJ2BP, P57105; [2]): 4.53
pKd (LIN7C, Q9NUP9; [2]): 3.73
pKd (LNX2_2, Q8N448; [2]): below the threshold
pKd (NHERF4_2, Q86UT5; [2]): below the threshold
pKd (GORASP1, Q9BQQ3; [2]): below the threshold
pKd (LNX1_1, Q8TBB1; [2]): below the threshold
pKd (SNTG1, Q9NSN8; [2]): 3.65
pKd (NHERF2_2, Q15599; [2]): 3.77
pKd (DLG4_1, P78352; [2]): below the threshold
pKd (PDZRN4_1, Q6ZMN7; [2]): 4.7
pKd (DFNB31_3, Q9P202; [2]): below the threshold
pKd (MAST1, Q9Y2H9; [2]): 4.77
pKd (NHERF3_1, Q5T2W1; [2]): 4.22
pKd (Inadl_8, Q8NI35; [2]): below the threshold
Binder: VDFPPKESSL [ACVR2A, P27037]

pKd (NHERF3_4, Q5T2W1; [2]): below the threshold
pKd (DLG4_2, P78352; [2]): 4.2
pKd (TJP1_2, Q07157; [2]): below the threshold
pKd (DLG3_2, Q92796; [2]): 4.35
pKd (RHPN1, Q8TCX5; [2]): 4.93
pKd (MPP2, Q14168; [2]): below the threshold
pKd (SHANK1, Q9Y566; [2]): 5.14
pKd (MAGI1_2, Q96QZ7; [2]): 4.01
pKd (FRMPD3, Q5JV73; [2]): 3.81
pKd (GORASP2, Q9H8Y8; [2]): below the threshold
pKd (SCRIB_1, Q14160; [2]): 5.44
pKd (MAGI2_3, Q86UL8; [2]): below the threshold
pKd (PTPN3, P26045; [2]): 5.01
pKd (SYNJ2BP, P57105; [2]): 4.74
pKd (LIN7C, Q9NUP9; [2]): 4.06
pKd (LNX2_2, Q8N448; [2]): below the threshold
pKd (NHERF4_2, Q86UT5; [2]): below the threshold
pKd (GORASP1, Q9BQQ3; [2]): 3.64
pKd (LNX1_1, Q8TBB1; [2]): below the threshold
pKd (SNTG1, Q9NSN8; [2]): 4.28
pKd (NHERF2_2, Q15599; [2]): 5.21
pKd (DLG4_1, P78352; [2]): 4.11
pKd (PDZRN4_1, Q6ZMN7; [2]): 5.23
pKd (DFNB31_3, Q9P202; [2]): 3.49
pKd (MAST1, Q9Y2H9; [2]): 5.3
pKd (NHERF3_1, Q5T2W1; [2]): 5.92
pKd (Inadl_8, Q8NI35; [2]): 3.61
Binder: PVRVCEETSL [OTULIN, Q96BN8]
